Tests used:
[1] = tested on: T1, CC(C)(O)C(O)C(=O)O; assay: Michaelis-Menten kinetics (Km), DNPH assay; type: biochemical, Campylobacter jejuni; settings: [4Fe-4S] cluster, Mg2+ active site
T1 construct: hexa-histidine tag at the N-terminal, pET-28a

[2] = tested on: T1, CC(C)(O)C(O)C(=O)O; assay: Michaelis-Menten kinetics (Km), DNPH assay; type: biochemical, Staphylococcus aureus; settings: [4Fe-4S] cluster, Mg2+ active site

| Substance | Km [1] | kcat [1] | kcat/Km [1] | Km [2] | kcat [2] | kcat/Km [2] |
| --- | --- | --- | --- | --- | --- | --- |
| CjDHAD (dihydroxy-acid dehydratase) (Campylobacter jejuni subsp. jejuni NCTC 11168 = ATCC 700819) | 820 µM | 6.5 s⁻¹ | 7930 M⁻¹ s⁻¹ | – | – | – |
| SaDHAD (dihydroxy-acid dehydratase) (Staphylococcus aureus subsp. aureus NCTC 8325) | – | – | – | 1100 µM | 2.1 s⁻¹ | 1910 M⁻¹ s⁻¹ |

— PMC9543379, “Dihydroxy‐Acid Dehydratases From Pathogenic Bacteria: Emerging Drug Targets to Combat Antibiotic Resistance” (Chemistry (Weinheim an Der Bergstrasse, Germany), 2022)
